Experimental data reported in US20030064070A1.

Molecular target: recombinant human TNFα (rhTNF) (human) (UniProt P01375)
Experiment: cell-based or functional assay

Sequence of UniProt P01375 (P01375 77-233 limits assumed): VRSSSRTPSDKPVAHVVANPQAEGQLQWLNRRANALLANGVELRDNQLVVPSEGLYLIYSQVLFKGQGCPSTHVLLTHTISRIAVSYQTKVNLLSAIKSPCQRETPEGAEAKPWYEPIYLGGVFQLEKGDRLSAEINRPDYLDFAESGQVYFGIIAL

IL-6 in supernatant of FS-4 fibroblasts, TNF 0.3 ng/ml, antibody 4 µg/ml: 1.6 ng/mL
IL-6 in supernatant of FS-4 fibroblasts, TNF 1.5 ng/ml, antibody 4 µg/ml: 1.96 ng/mL
IL-6 in supernatant of FS-4 fibroblasts, TNF 7.5 ng/ml, antibody 4 µg/ml: 2.16 ng/mL
B1: chimeric mouse/human IgG1 anti-platelet mAb (7E3) (antibody, INN chains, looked up, V domains shown)
VH: EVQLQQSGTVLARPGASVKMSCEASGYTFTNYWMHWVKQRPGQGLEWIGAIYPGNSDTSYIQKFKGKAKLTAVTSTTSVYMELSSLTNEDSAVYYCTLYDGYYVFAYWGQGTLVTVSA
VL: EIVLTQSPVTLSVTPGDSVSLSCRASRDISNNLHWFQQTSHESPRLLIKYASQSMSGIPSRFSGSGSGTDFTLSINSVETEDFGMYFCQQTNSWPYTFGGGTKLEIK
modifications: IgG1
